From patent US20240392020A1 (JIANGSU HENGRUI PHARMACEUTICALS, published 2024) come the findings set out here.

Like-named read-outs stand apart in the source and are kept apart here.

Test [1] concerns the target T1, hTSLP (human, UniProt Q969D9 29-159).
T1 construct: bought
The experiment in a line: ELISA. In general terms: In an ELISA, binding on a coated surface is turned into a signal by an enzyme label.

Test [2] deals with T2, hBAFF (human, UniProt Q9Y275 134-285).
T2 construct: bought
The experiment in a line: SPR Biacore T200, antibody captured on Protein A chip.

Test [3] has as its target T2, hBAFF. Described as above. This is another data set of the same source.
Test [4] addresses T2, hBAFF. The experiment in a line: ELISA.
Test [5] deals with T2, hBAFF. The experiment in a line: ELISA. The source holds these as a separate data set.
In test [6] the target is T3, hP40 (human, UniProt P29460 23-328).
T3 construct: bought
T3 sequence (looked up): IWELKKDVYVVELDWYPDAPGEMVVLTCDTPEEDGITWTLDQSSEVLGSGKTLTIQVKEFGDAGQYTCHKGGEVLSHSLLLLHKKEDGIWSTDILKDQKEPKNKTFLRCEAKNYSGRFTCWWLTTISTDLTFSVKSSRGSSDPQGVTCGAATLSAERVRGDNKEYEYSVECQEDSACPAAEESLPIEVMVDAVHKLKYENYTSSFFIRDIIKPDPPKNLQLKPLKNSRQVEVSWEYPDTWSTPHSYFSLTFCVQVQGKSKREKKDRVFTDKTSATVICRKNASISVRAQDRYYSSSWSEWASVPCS
The experiment in a line: SPR Biacore T200, antibody captured on Protein A chip.

The target in test [7] is T3, hP40. The experiment in a line: ELISA.
For test [8], the target named is T3, hP40. The experiment in a line: SPR Biacore T200, BU5 captured, hP40 injected after saturation with hBAFF.
Test [9] has as its target T2, hBAFF. The experiment in a line: SPR Biacore T200, BU5 captured, hBAFF injected after saturation with hP40. (In general: Surface plasmon resonance follows binding to a sensor surface in real time, without labels.)
For test [10], the target named is T4, hB7H3 antigen protein (human, UniProt Q5ZPR3 29-461).
T4 construct: prepared in the laboratory
T4 sequence: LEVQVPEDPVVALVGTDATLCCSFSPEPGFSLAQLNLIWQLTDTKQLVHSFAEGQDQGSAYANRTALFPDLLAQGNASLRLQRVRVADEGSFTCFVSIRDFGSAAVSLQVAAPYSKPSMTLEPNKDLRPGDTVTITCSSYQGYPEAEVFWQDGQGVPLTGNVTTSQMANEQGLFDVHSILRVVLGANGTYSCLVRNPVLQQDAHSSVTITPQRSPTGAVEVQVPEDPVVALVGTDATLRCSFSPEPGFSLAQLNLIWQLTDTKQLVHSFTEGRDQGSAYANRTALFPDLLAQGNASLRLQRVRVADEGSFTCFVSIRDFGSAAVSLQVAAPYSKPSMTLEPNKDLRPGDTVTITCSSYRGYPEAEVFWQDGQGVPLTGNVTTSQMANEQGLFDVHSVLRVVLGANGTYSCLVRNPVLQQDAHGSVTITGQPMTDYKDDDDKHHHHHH
The experiment in a line: SPR Biacore T200, antibody captured on Protein A chip.

Test [11] concerns the target T5, hCD3 antigen protein (heterodimer of delta and epsilon subunits) (human).
T5 construct: prepared in the laboratory
T5 chain 1: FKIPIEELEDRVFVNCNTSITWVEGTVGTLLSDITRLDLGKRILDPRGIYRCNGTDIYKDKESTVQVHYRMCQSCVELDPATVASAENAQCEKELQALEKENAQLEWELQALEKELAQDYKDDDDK
T5 chain 2: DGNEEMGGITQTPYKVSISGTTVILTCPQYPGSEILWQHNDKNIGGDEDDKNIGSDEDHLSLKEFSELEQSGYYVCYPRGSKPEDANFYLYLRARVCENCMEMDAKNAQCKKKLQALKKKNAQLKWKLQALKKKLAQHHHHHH
The description is as above.

B1: J0 (antibody, human IgG1, lambda)
heavy: not shown
light: SYELTQPLSVSVALGQTARITCSGDNIGSKYVHWYQQKPGQAPVLVIYGDNERPSGIPERFSGSNSGNTATLTISRAQAGDEADYYCQAADWVDFYVFGGGTKLTVLGQPKAAPSVTLFPPSSEELQANKATLVCLISDFYPGAVTVAWKADSSPVKAGVETTTPSKQSNNKYAASSYLSLTPEQWKSHRSYSCQVTHEGSTVEKTVAPTECS
On to B1, for which the response in test [1] was half-maximal at 80 pM (EC50).

B2: J2 (antibody)
heavy: not shown
light: SYELTQPLSVSVALGQTARITCSGDNIGSKYVHWYQQKPGQAPVLVIYGDNERPSGIPERFSGSNSGNTATLTISRAQAGDEADYYCQAADWVDFYVFGGGTKLTVLFDPVYKVKPNPPHNLSVINSEELSSILKLTWTNPSIKSVIILKYNIQYRTKDASTWSQIPPEDTASTRSSFTVQDLKPFTEYVFRIRCMKEDGKGYWSDWSEEASGIT
As to B2, the EC50 (in general, the midpoint of the concentration-response curve) in test [1] is 179000 pM.

B3: Bmab (antibody, human IgG1, lambda)
heavy: not shown
light: SSELTQDPAVSVALGQTVRVTCQGDSLRSYYASWYQQKPGQAPVLVIYGKNNRPSGIPDRFSGSSSGNTASLTITGAQAEDEADYYCSSRDSSGNHWVFGGGTELTVLGQPKAAPSVTLFPPSSEELQANKATLVCLISDFYPGAVTVAWKADSSPVKAGVETTTPSKQSNNKYAASSYLSLTPEQWKSHRSYSCQVTHEGSTVEKTVAPTECS
notes: also called B0
With B3, the figures for the Kd in test [2] and in test [3] were 855 pM and 864 pM, respectively. Further, the values for the off-rate constant (koff) in [2] and in [3] were 0.000152 s⁻¹ and 0.000153 s⁻¹, respectively. Also, the kon in test [2] and in test [3] was 177000 M⁻¹ s⁻¹ each time. For the same molecule, the EC50 in test [4] was found to be 200 pM; in [5] it was 219 pM.

B4: BU1 (bispecific antibody, human IgG1, lambda, L234A L235A)
heavy 1: not shown
light 1: B3 light
heavy 2: EVQLVQSGAEVKKPGESLKISCKGSGYSFTTYWLGWVRQMPGKGLDWIGIMSPVDSDIRYSPSFQGQVTMSVDKSITTAYLQWNSLKASDTAMYYCARRRPGQGYFDFWGQGTLVTVSSGGGGSGIPPKIECLPSDISIDEGKVLTVASAFTGEPTPEVTWSTGGRKIHSQEQGRFHIESTEDLTTLIISDVQKQDGGLYSLSLGNEFGSDSATVNIHIRSIDKTHTCPPCPAPEAAGGPSVFLFPPKPKDTLMISRTPEVTCVVVDVSHEDPEVKFNWYVDGVEVHNAKTKPREEQYNSTYRVVSVLTVLHQDWLNGKEYKCKVSNKALPAPIEKTISKAKGQPREPQVCTLPPSREEMTKNQVSLSCAVKGFYPSDIAVEWESNGQPENNYKTTPPVLDSDGSFFLVSKLTVDKSRWQQGNVFSCSVMHEALHNHYTQKSLSLSPGK
light 2: DIQMTQSPSSLSASVGDRVTITCRASQGISSWLAWYQQKPEKAPKSLIYAASSLQSGVPSRFSGSGSGTDFTLTISSLQPEDFATYYCQQYNIYPYTFGQGTKLEIKGGGGSSGAPRFLTRPLSYVVSVGKDASLSSQIVGNPTPQVSWEKDQLPVTAGARFRLAQDGDLYRLKILDLQLSDSGQYVSRARNAIGEAFACVGLEVGAEA
As to B4, the Kd (in general, the equilibrium constant for the complex coming apart) was determined as 499 pM in test [2] and 34.9 pM in test [6]. Further, the off-rate constant (koff) (as a rule, a measure of how fast the partners let go of each other) was found to be 0.000169 s⁻¹ in test [2] and 4.81e-05 s⁻¹ in test [6]. In addition, the association rate constant (kon) (in general, a measure of how fast the partners come together) in test [2] came out at 338000 M⁻¹ s⁻¹; in test [6] it was 1.38e+06 M⁻¹ s⁻¹. Further, the figures for the EC50 in test [5] and in [7] were 356 pM and 84 pM, respectively.

B5: BU5 (bispecific antibody, human IgG1, kappa, L234A L235A)
heavy 1: QVQLQQSGAEVKKPGSSVRVSCKASGGTFNNNAINWVRQAPGQGLEWMGGIIPMFGTAKYSQNFQGRVAITADESTGTASMELSSLRSEDTAVYYCARSRDLLLFPHHALSPWGRGTMVTVSSGGGGSGIPPKIECLPIDISIDEGKVLTVASAFTGEPTPEVTWSTGGRKIHSQEQGRFHIENTDDLTTLIIKDVQKQDGGLYTLTLRNEFGSDSATVNIHIRSIDKTHTCPPCPAPEAAGGPSVFLFPPKPKDTLMISRTPEVTCVVVDVSHEDPEVKFNWYVDGVEVHNAKTKPREEQYNSTYRVVSVLTVLHQDWLNGKEYKCKVSNKALPAPIEKTISKAKGQPREPQVCTLPPSREEMTKNQVSLSCAVKGFYPSDIAVEWESNGQPENNYKTTPPVLDSDGSFFLVSKLTVDKSRWQQGNVFSCSVMHEALHNHYTQKSLSLSPGK
light 1: SSELTQDPAVSVALGQTVRVTCQGDSLRSYYASWYQQKPGQAPVLVIYGKNNRPSGIPDRFSGSSSGNTASLTITGAQAEDEADYYCSSRDSSGNHWVFGGGTELTVLGGGGSSGAPRFLTRPLAFVVSVGKDATLSSQIVGNPTPQVSWEKDKQPVTAGARFRLAQDGDLYRLKILDLQLSDSGQYVSRARNAIGEAFACLGLQVDAEA
heavy 2: not shown
light 2: not shown
On to B5, for which the equilibrium dissociation constant (Kd) in test [8] stood at 66.1 pM; in test [2] it was 393 pM; in test [6], 66.4 pM; in test [9] it was 537 pM. The koff in test [8] worked out at 0.000104 s⁻¹; in test [2], 7.62e-05 s⁻¹; in [6] it was 0.000102 s⁻¹; in [9], 8.44e-05 s⁻¹. The on-rate (kon) in test [8] came out at 1.57e+06 M⁻¹ s⁻¹; in [2], 194000 M⁻¹ s⁻¹; in test [6], 1.54e+06 M⁻¹ s⁻¹; in test [9], 157000 M⁻¹ s⁻¹.

B6: FA-1 (bispecific antibody)
heavy 1: QVQLVQSGGGVVQPGTSLRLSCAASGFIFSSSAMHWVRQAPGKGLEWVAVISYDGSNKYYVDSVKGRFTISRDNSKNTLYLQMNSLRAEDTAVYYCARSARLYASFDYWGQGALVTVSSGGGGSGIPPKIECLPIDISIDEGKVLTVASAFTGEPTPEVTWSTGGRKIHSQEQGRFHIENTDDLTTLIIKDVQKQDGGLYTLTLRNEFGSDSATVNIHIRSIDKTHTCPPCPAPEAAGGPSVFLFPPKPKDTLMISRTPEVTCVVVDVSHEDPEVKFNWYVDGVEVHNAKTKPREEQYNSTYRVVSVLTVLHQDWLNGKEYKCKVSNKALPAPIEKTISKAKGQPREPQVCTLPPSREEMTKNQVSLSCAVKGFYPSDIAVEWESNGQPENNYKTTPPVLDSDGSFFLVSKLTVDKSRWQQGNVFSCSVMHEALHNHYTQKSLSLSPGK
light 1: DTVVTQEPSFSVSPGGTVTLTCGLSSGSVSTSHYPSWYQQTPGQAPRMLIYNTNTRSSGVPDRFSGSILGNKAALTITGAQADDESDYYCAIHVDRDIWVFGGGTKLTVLGGGGSSGAPRFLTRPLAFVVSVGKDATLSSQIVGNPTPQVSWEKDKQPVTAGARFRLAQDGDLYRLKILDLQLSDSGQYVSRARNAIGEAFACLGLQVDAEA
heavy 2: not shown
light 2: not shown
notes: also called FA-1 bispecific antibody
In test [10], B6 came in with a dissociation constant Kd of 45000 pM, a koff of 0.00712 s⁻¹ and a kon of 158000 M⁻¹ s⁻¹. In [11], this molecule came in with a Kd of 60200 pM, a koff of 0.00425 s⁻¹ and a kon of 70600 M⁻¹ s⁻¹.

B7: J3 (antibody)
heavy: not shown
light: SYELTQPLSVSVALGQTARITCSGDNIGSKYVHWYQQKPGQAPVLVIYGDNERPSGIPERFSGSNSGNTATLTISRAQAGDEADYYCQAADWVDFYVFGGGTKLTVLGIPPKIEALPSDISIDEGKVLTVACAFTGEPTPEVTWSCGGRKIHSQEQGRFHIENTDDLTTLIIMDVQKQDGGLYTLSLGNEFGSDSATVNIHIRSI
On to B7, for which, in [1], the EC50 was 250 pM.
